Measurements published in article PMC11078986, “Structural basis and synergism of ATP and Na^+ activation in bacterial K^+ uptake system KtrAB” (Nature Communications, 2024).

T1: BsKtrA (Bacillus subtilis, UniProt O32080)
T1 construct: gene ktrA; tag-less BsKtrA (octamer) in the BsKtrAB complex; with BsKtrB
T1 sequence (O32080 1-222): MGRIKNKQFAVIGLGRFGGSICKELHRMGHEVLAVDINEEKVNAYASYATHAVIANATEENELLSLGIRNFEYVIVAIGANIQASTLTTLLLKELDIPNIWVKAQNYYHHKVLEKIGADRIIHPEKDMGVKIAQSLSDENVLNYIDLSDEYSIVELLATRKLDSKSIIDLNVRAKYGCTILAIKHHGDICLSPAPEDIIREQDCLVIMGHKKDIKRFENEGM
T1 sequence (O32081 1-445 partner): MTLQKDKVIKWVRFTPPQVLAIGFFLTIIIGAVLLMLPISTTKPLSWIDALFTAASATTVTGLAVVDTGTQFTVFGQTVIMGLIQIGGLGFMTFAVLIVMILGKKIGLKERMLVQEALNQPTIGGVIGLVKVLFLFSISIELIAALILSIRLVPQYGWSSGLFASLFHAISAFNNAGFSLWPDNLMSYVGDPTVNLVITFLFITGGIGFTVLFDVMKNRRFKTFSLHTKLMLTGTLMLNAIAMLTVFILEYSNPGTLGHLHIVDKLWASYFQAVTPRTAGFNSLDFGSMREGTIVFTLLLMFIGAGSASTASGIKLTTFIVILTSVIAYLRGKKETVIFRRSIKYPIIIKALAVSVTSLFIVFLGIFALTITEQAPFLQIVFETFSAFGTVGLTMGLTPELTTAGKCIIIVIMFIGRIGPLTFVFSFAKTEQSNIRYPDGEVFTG

B1: KtrB from Bacillus subtilis (BsKtrB) (natural protein)
chain: MTLQKDKVIKWVRFTPPQVLAIGFFLTIIIGAVLLMLPISTTKPLSWIDALFTAASATTVTGLAVVDTGTQFTVFGQTVIMGLIQIGGLGFMTFAVLIVMILGKKIGLKERMLVQEALNQPTIGGVIGLVKVLFLFSISIELIAALILSIRLVPQYGWSSGLFASLFHAISAFNNAGFSLWPDNLMSYVGDPTVNLVITFLFITGGIGFTVLFDVMKNRRFKTFSLHTKLMLTGTLMLNAIAMLTVFILEYSNPGTLGHLHIVDKLWASYFQAVTPRTAGFNSLDFGSMREGTIVFTLLLMFIGAGSASTASGIKLTTFIVILTSVIAYLRGKKETVIFRRSIKYPIIIKALAVSVTSLFIVFLGIFALTITEQAPFLQIVFETFSAFGTVGLTMGLTPELTTAGKCIIIVIMFIGRIGPLTFVFSFAKTEQSNIRYPDGEVFTG
notes: KtrB, transmembrane K+ permeation subunit of the K+ uptake system KtrAB, Bacillus subtilis; Membrane protein dimer in detergent (DDM, or 6-cyclohexyl-1-hexyl-beta-D-maltoside for cryo-EM); source: E. coli C43 (DE3), purified (DDM extraction, Ni-NTA, TEV cleavage, second Ni-NTA, SEC); not shown: His tag, N-terminal, cleaved

Assays:
BsKtrA = biological target: T1, BsKtrA; test: cryo-EM structure of ADP-BsKtrAB at […] Å (Structure III); assay type: binding
[1] = biological target: the molecule itself; test: cryo-EM structure; ATP-BsKtrAB (Structures I, II, IIa, IIb); BsKtrA and BsKtrB mixed 2:1 with 1 mM ATP, complex taken from SEC; Cryo-EM Buffer (20 mM Tris-HCl pH 8.0, 70 mM NaCl, 30 mM KCl, 0.75 mM 6-cyclohexyl-1-hexyl-beta-D-maltoside) with 1 mM ATP and 2 mM MgCl2, or 1 mM ATP, 2 mM EDTA and 1 mM EGTA; KtrB2A8B2 assembly
[2] = biological target: B1; test: as above; details: both partners purified

Row | binding result [2] | Molecule | cryo-EM structure of ADP-BsKtrAB at 2.8 Å (Structure III) (BsKtrA) | stoichiometry N [1]
1 |  | Nc1ncnc2c1ncn2[C@@H]1O[C@H](COP(=O)(O)OP(=O)(O)O)[C@@H](O)[C@H]1O [ADP] | ATP and ADP share the same binding site located at the intra-dimer interface of KtrA RCK_N subdomains | 
2 |  | B1 |  | 2
3 | binds | KtrA from Bacillus subtilis (BsKtrA) (natural protein, KtrA, regulatory RCK subunit of the K+ uptake system KtrAB, Bacillus subtilis; tag-less; Octameric ring (tetramer of homodimers); Used with ATP, with ADP or as apo protein; also called ATP-BsKtrA; ADP-BsKtrA; source: E. coli BL21(DE3), purified (anion exchange, N6-hexyl-ATP agarose, dialysis, SEC)) MGRIKNKQFAVIGLGRFGGSICKELHRMGHEVLAVDINEEKVNAYASYATHAVIANATEENELLSLGIRNFEYVIVAIGANIQASTLTTLLLKELDIPNIWVKAQNYYHHKVLEKIGADRIIHPEKDMGVKIAQSLSDENVLNYIDLSDEYSIVELLATRKLDSKSIIDLNVRAKYGCTILAIKHHGDICLSPAPEDIIREQDCLVIMGHKKDIKRFENEGM |  | 8
